Measurements reported in the supplement of paper PMC9170038.

System: MS2 coat protein
Experiment: apparent KD of MS2 coat protein; designed switch direction (-1 OFF switch, 1 ON switch): -1; higher = weaker reporter binding
How it was run: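 Normalised cluster fluorescence was curve-fitted, and each design's median over clusters is its apparent KD. Before this, SNAP-549-labelled MS2 coat protein was titrated from 0.7 or 1.5 nM, doubling to 3 µM, over RNA switches transcribed on Illumina chips by stalled E. coli RNA polymerase. Titrations had no input, 200 uM small-molecule ligand, or an oligonucleotide input, and steps lasted 0.8–1.5 h (lowest) to 10–20 min (highest).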

[1] = input ligand: microRNA oligo, concentration not stated
[2] = Eterna round: R95, input ligand: microRNA oligo, concentration not stated

Sequence | apparent KD of MS2 coat protein (input ligand: FMN 200 uM) | apparent KD of MS2 coat protein [1] | apparent KD of MS2 coat protein (input ligand: none) | apparent KD of MS2 coat protein (Eterna round: R95, input ligand: FMN 200 uM) | apparent KD of MS2 coat protein [2] | apparent KD of MS2 coat protein (Eterna round: R95, input ligand: none)
UGUUGUCGCGCAGGAUAUGAGGAUCACCCAUGUAGAGGAUAUGAAAAGAAGGCUCUGAGGAUUACCCAGAAGGGCGGGACAACU [pwkr exNG2 2xF5 2xFMN.25] (Eterna round: R96, puzzle: Exclusion NG 2) | 800 nM | 270 nM | 400 nM | – | – | –
UGUUGUCGCGCAGGAUAUGGCCAACAGGCCCUAGGAUAUCCGAAAGGAGAAGGAGCGCCAACAGGCGAGAAGGGCGGGACAACU [pwkr exNG2 2xF7 2xFMN.16] (Eterna round: R96, puzzle: Exclusion NG 2) | 19.5 nM | 4.03 nM | 29.7 nM | – | – | –
UGUUGUCGCGCAGGAUAUGUAUGAGGAUCACCCAUUAAUAAAUUUUAACCACGAGGAUCACCCGUGUAGAAGGGCGGGACAACA [pwkr exNG2 2xF5 1xFMN.15] (Eterna round: R96, puzzle: Exclusion NG 2) | 30.8 nM | 18.3 nM | 29.5 nM | – | – | –
UGUUGUUACGCAGGAUAUGAGGAUCACCCAUAUUAGGAUAUCGAAAGAGAAUUUCUGAGGAUCACCCAGAAGGGCGGGUUAACA [pwkr exNG2 2xF5 2xFMN.36] (Eterna round: R96, puzzle: Exclusion NG 2) | 118 nM | 38.5 nM | 47.3 nM | – | – | –
UGUUGUUACGCAGGAUAUGUAUGAGGAUCACCCAUUAAUAAAUUUUAACCACGAGGAUCACCCGUGUAGAAGGGCGGGUUAACA [pwkr exNG2 2xF5 1xFMN.13] (Eterna round: R96, puzzle: Exclusion NG 2) | 96.3 nM | 65 nM | 105 nM | – | – | –
UGUUGUUACGCAGGAUAUUGCCAACAGGCAGUAGGAUAUCCGAAAGGAGAAGGACCGCCAACAGGCGAGAAGGGCGGGUUAACA [pwkr exNG2 2xF7 2xFMN.10] (Eterna round: R96, puzzle: Exclusion NG 2) | 370 nM | 227 nM | 16.3 nM | – | – | –
UGUUGUUACGUAGGAUAUGAGGAUCACCCAUAGAAGGAUAUCGAAAGAGAAGGUCUGAGGAUUACCCAGAAGGACGGGUUAACA [pwkr exNG2 2xF5 2xFMN.4] (Eterna round: R96, puzzle: Exclusion NG 2) | 1340 nM | 131 nM | 139 nM | – | – | –
UGUUUACAUGAGGAUCACCCAUGUCAGGAUAUGCUCGAUAUAUGGAAACAUAUAUCGAGCAGAAGGGACUAGCG [Jieuxxlusion 4 - Jieux - Exclusion 1] (Eterna round: R97, puzzle: Exclusion 1) | 85 nM | – | 39.3 nM | – | – | –
UUAAAACAUGUAGGAUAUGCGUAGAAAAGCUAUGCAGAAGGACAUGAGGAUCACCCAUGUUCAACCAUCAACGUACAGAUGGAA (Eterna round: R96, puzzle: Exclusion NG 1) | 31.7 nM | 12.1 nM | 14.1 nM | – | – | –
UUAAAUCAUGUAGGAUAUGCGUGGCGAAGCUAUGCAGAAGGACAUGAGGAUCACCCAUGUCUUUCCGUCUGCGUACAGAUGGAA [JL Eng1 1.08 mod 2] (Eterna round: R96, puzzle: Exclusion NG 1) | 259 nM | 19.8 nM | 24.8 nM | – | – | –
UUAAAUCAUGUAGGAUAUGCGUGGCGAAGCUAUGCAGAAGGACAUGAGGAUCACCCAUGUGCUUGCGUCCGCGUACGGAUGCUA [JL ENG1 1.22] (Eterna round: R96, puzzle: Exclusion NG 1) | 195 nM | 94 nM | 104 nM | – | – | –
UUAAAUCAUGUAGGAUAUGCGUGGCGAAGCUAUGCAGAAGGACAUGAGGAUCACCCAUGUGCUUGCGUCUGAGUACAGAUGCUA [Mat - Exclusion NG 1 - Mod of JL - D4] (Eterna round: R96, puzzle: Exclusion NG 1) | 86.4 nM | 74 nM | 117 nM | – | – | –
UUAAAUCAUGUAGGAUAUGCUUUGCAAAGCGAGGCAGAAGGACAUGAGGAUCACCCAUGUGCUAGCGUCCGAGAACGGAUGCAA [Mat - Exclusion NG 1 - Mod of JL - D64] (Eterna round: R96, puzzle: Exclusion NG 1) | 503 nM | 41.6 nM | 46.6 nM | – | – | –
UUAAAUCAUGUAGGAUAUGCUUUGCGAAGCGAGGCAGAAGGACAUGAGGAUCACCCAUGUGCUAGCGUCCGAGAACGGAUGCAA [Mat - Exclusion NG 1 - Mod of JL - D63] (Eterna round: R96, puzzle: Exclusion NG 1) | 149 nM | 51.8 nM | 79.6 nM | – | – | –
UUAACAUGCUGGUGAUCAUACAUGAGGAUCACCCAUGUAACAAGCUUUUUGUUCGUCUUAUAAGAUCACCAGCAUGU [Stov1/9-B1] (Eterna round: R97, puzzle: Sensor, turn-off variant 1) | 18.7 nM | – | 17.2 nM | – | – | –
UUAAGCUUUGAGAUCCUUAACAUGAGGAUCACCCAUGUUCGUCUUAUGAUGGUCUGAUCCCUGAGGAUCGGACCGUU [Mat - Sensor v3 - turn-off var 1 - JL Mod - D3] (puzzle: Sensor v3, turn-off variant 1) | – | – | – | 261 nM | 22.5 nM | 303 nM

Sequence | apparent KD of MS2 coat protein (input ligand: FMN 200 uM) | apparent KD of MS2 coat protein [1] | apparent KD of MS2 coat protein (input ligand: none) | apparent KD of MS2 coat protein (Eterna round: R95, input ligand: FMN 200 uM) | apparent KD of MS2 coat protein [2] | apparent KD of MS2 coat protein (Eterna round: R95, input ligand: none)
UUAAGGAUAGAGGAUAUAUUAAAGAAGGUGGCGAUAGAAGGCUAGACAUGAGGAUCACCCAUGUAAAUUGGGAU [JR_Ex6_Sub068] (Eterna round: R97, puzzle: Exclusion 6) | 378 nM | – | 309 nM | – | – | –
UUAAUAAGUGUGAGGAUAUGCUGGUCCUUGGAUCAGCAGAAGGCACAUGAGGAUCACCCAUGUACAAUAUAUUA [Mat - Exclusion 4 - JL Mod - D31] (puzzle: Brourd's mod of Exclusion 4) | – | – | – | – | 33.9 nM | –
UUAAUACAUGUAGGAUAUGCGUGGCGAAGCUAUGCAGAAGGACAUGAGGAUCACCCAUGUUCUUGCGUCCGCGUACGGAUGCAA [JL Eng1 1.21 mod 4] (Eterna round: R96, puzzle: Exclusion NG 1) | 29.4 nM | 10.2 nM | 15.2 nM | – | – | –
UUAAUGUGAGGAUAUCAGGUGUGCUAGCGUACUGGUACAUCUGAGAAGGCACAUGAGGAUCACCCAUGUUCCAG [JL-ex4-3.29 Brourd mod] (puzzle: Exclusion 4) | – | – | – | – | 30.5 nM | –
UUAAUUAAUUAACGCAGCAAGAUCACAUGAGGAUCACCCAUGUAGGAUAUCAGCUCGUUUAGAGCUGAGAAGGACAUAGCUGCG [ExNG3/1-A2] (Eterna round: R96, puzzle: Exclusion NG 3) | 87.6 nM | 11.1 nM | 18 nM | – | – | –
UUAAUUAAUUAUAUAAGAUCACAUGAGGAUCACCCAUGUAUAUAGGAUAUCAGCUCGUGUAGAGCUGAGAAGGAUAUACAAUAU [ExNG3/3-B3] (Eterna round: R96, puzzle: Exclusion NG 3) | 241 nM | 210 nM | 175 nM | – | – | –
UUAAUUAAUUGACUGCAAGAUCAACAUGAGGAUCACCCAUGUGAGGAUAUCAGCUCGUGUAGAGCUGAGAAGGCACAAGCAGUC [ExNG3/16-A3] (Eterna round: R96, puzzle: Exclusion NG 3) | 73.6 nM | 13.4 nM | 21.8 nM | – | – | –
UUAAUUAAUUGCGCAAGAUCACAUGAGGAUCACCCAUGUAUAUAGGAUAUCAGCUCGUGUAGAGCUGAGAAGGAUAUACAGCGC [ExNG3/3-A3] (Eterna round: R96, puzzle: Exclusion NG 3) | 886 nM | 419 nM | 495 nM | – | – | –
UUAAUUAGCUCGCUAGAUCCUCACAUGAGGAUCACCCAUGUGCAGGAUAUCAGCUCGAUUAGAGCUGAGAAGGGCACUGCGAGC [ExNG3/10-A1] (Eterna round: R96, puzzle: Exclusion NG 3) | 160 nM | 89.5 nM | 104 nM | – | – | –
UUAAUUCUGAUUCUUGAAAUACAUGAGGAUCACCCAUGUUCACAGGAUAUUGAUUAUGUUAGUAACAAGAAGGGUGUAACAUAU [JR_ExcNG3_Sub037] (Eterna round: R96, puzzle: Exclusion NG 3) | – | 26.4 nM | – | – | – | –
UUAAUUUAAGGGAUAGAUCAUUACAUGAGGAUCACCCAUGUUGAGGAUAUCAGCUCGUGUAGAGCUGAGAAGGCAACAAUAGGG [ExNG3/14-A3] (Eterna round: R96, puzzle: Exclusion NG 3) | 249 nM | 377 nM | 92.3 nM | – | – | –
UUACGGAUAGAGGAUAUAUUAAGGAAGGUUACGAUAGAAGGCUAGACAUGAGGAUCACCCAUGUAUAUUGGGAU [JR_Ex6_Sub072] (Eterna round: R97, puzzle: Exclusion 6) | 172 nM | – | 144 nM | – | – | –
UUACGUUUAGAGGAUAUAUUAAGGAAGGUAACGAUAGAAGGCUAGACAUGAGGAUCACCCAUGUAUAUAGGGAU [JR_Ex6_Sub071] (Eterna round: R97, puzzle: Exclusion 6) | 141 nM | – | 54 nM | – | – | –
UUAGAGUCAGGAUAUGCAGCUCCCUGUAGGGCCGAACAGCAGUAGAAGGGACAUGAGGAUCACCCAUGUGAUAG [Eternabot (L2) Solution 52] (Eterna round: R97, puzzle: Exclusion 4) | 86.1 nM | – | 81.5 nM | – | – | –
UUAGAUAGGUCAGGAUAUCGAUUAUUGUAUAGUAUGAUUUACAUGAGGAUCACCCAUGUUAAAUACGAGAAGGGACGUUAGAUU [JR_ExcNG2_Sub022] (Eterna round: R96, puzzle: Exclusion NG 2) | – | 16.9 nM | – | – | – | –
